Results from US20210171576.

Target: Untagged human mitochondrial ClpP (HsClpP) (UniProt Q16740)
Sequence (Q16740 other isoform, or with tags, fused parts or gaps): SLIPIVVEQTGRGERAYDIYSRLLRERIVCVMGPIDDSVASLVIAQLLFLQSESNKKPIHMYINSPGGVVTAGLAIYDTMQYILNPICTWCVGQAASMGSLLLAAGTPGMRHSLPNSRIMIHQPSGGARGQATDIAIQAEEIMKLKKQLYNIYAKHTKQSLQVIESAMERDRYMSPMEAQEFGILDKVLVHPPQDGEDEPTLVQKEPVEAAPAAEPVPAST

Untagged human mitochondrial ClpX (HsClpX), sequence (chain, as listed by the source): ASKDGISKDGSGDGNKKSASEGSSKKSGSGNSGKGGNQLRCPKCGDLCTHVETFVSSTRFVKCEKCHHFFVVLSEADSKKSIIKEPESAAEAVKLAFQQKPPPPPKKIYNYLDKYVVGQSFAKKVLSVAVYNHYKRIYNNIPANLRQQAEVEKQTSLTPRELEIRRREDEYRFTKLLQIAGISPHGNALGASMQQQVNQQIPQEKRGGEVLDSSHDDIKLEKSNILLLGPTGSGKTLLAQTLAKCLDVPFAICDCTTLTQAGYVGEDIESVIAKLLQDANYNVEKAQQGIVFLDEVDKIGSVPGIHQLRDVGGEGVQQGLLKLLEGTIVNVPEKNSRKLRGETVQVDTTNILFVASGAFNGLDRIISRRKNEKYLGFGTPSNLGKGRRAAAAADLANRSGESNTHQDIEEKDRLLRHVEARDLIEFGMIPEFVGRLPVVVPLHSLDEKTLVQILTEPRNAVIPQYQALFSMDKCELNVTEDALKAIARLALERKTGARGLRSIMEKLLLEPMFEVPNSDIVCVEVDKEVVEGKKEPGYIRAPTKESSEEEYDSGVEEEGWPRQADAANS

Untagged human mitochondrial ClpX (HsClpX)
Hill coefficient (h) of casein-FITC degradation by HsClpP with titrated HsClpX: mild positive cooperativity (h=1.25) in HsCIpP-binding
K0.5 (microscopic apparent dissociation constant). Hill fit of initial rates of casein-FITC degradation; HsClpX titrated 0-18 µM against 3 µM HsClpP: a K0.5 of 5.7 µM
Vmax of casein-FITC degradation by HsClpP with titrated HsClpX: a Vmax of 6.88 RFU.s^-1
